Legend:
SCO7468 = SCO7468 (Streptomyces coelicolor, UniProt Q8CJJ9); assay: methanol denaturation and reverse-phase HPLC of co-purified flavin; format: binding; settings: tightly bound
[1] = substrate: N[C@@H](Cc1c[nH]c2ccccc12)C(=O)O; assay: LC-MS/MS quantification of aldoxime product (IAOx); format: biochemical, Streptomyces coelicolor; settings: 1 mM NADPH, 20 μM FAD, 100 mM Tris-HCl pH 8.0, 30 °C
[2] = substrate: CC(C)=CCc1ccc2[nH]cc(C[C@H](N)C(=O)O)c2c1; assay: LC-MS/MS quantification of aldoxime product (5-DMAIAOx); format: biochemical, Streptomyces coelicolor; settings: 1 mM NADPH, 20 μM FAD, 100 mM Tris-HCl pH 8.0, 30 °C
purified protein [3] = substrate: CC(C)=CCOP(=O)(O)OP(=O)(O)O; assay: purified protein; format: biochemical, Streptomyces coelicolor; settings: L-tryptophan 1 mM fixed, 2 mM MgCl2, 100 mM Tris-HCl pH 8.0, 30 °C
purified protein [4] = substrate: N[C@@H](Cc1c[nH]c2ccccc12)C(=O)O; assay: purified protein; format: biochemical, Streptomyces coelicolor; settings: DMAPP 1 mM fixed, 2 mM MgCl2, 100 mM Tris-HCl pH 8.0, 30 °C

Cc1cc2nc3c(=O)[nH]c(=O)nc-3n(C[C@H](O)[C@H](O)[C@H](O)COP(=O)(O)OP(=O)(O)OC[C@H]3O[C@@H](n4cnc5c(N)ncnc54)[C@H](O)[C@@H]3O)c2cc1C [FAD]
methanol denaturation and reverse-phase HPLC of co-purified flavin (SCO7468): FAD existed in the recombinant SCO7468 protein as a tightly bound form

B1: SCO7468 (Streptomyces coelicolor A3(2)) (protein)
chain: MRVCVIGAGLSGLAMGHALKERGISFVCLEKAPDVGGIWRQPGAGERGPGYQSLHLNTARQLTGYADFPMPSDYPLYPRHDQVAAYLRSFAEWAGLLDHVELRTEVLSVRQDSDGSWTVVSRDADGAQSARRFEQVVVASGHHTDPALPDPLPAGADSFAGTILHSLDYRDGGDFAGRRVVVVGLGASAVDIAADLSRHAERTLLSVRRGLHIVPKQVFGMSLDEIAEAPWWNEMPFAERRRWVEQALLVARGRLSDYGLPEPDHPILSSATTLSDEILSRIRHGAVTPKPAIASFESDRVVFTDGSSEAADTVVYCTGFHMTFPFLPPGCPVAADGAVELYRRIVPADRPGLYFVGLVRPAGALTRLVEAQAQWVARLVDGAAALPGTEEMREEISTYLAGIVERYGRTRGASIQVDVSPYLAEFREPLPV
Km [1]: (3.3 ± 0.7) ×10^3 μM
kcat [1]: (5.2 ± 0.4) ×10^−3 s^−1
Km [2]: 0.57 ± 0.1 µM
kcat [2]: (8.2 ± 0.7) ×10^−3 s^−1

B2: SCO7467 (Streptomyces coelicolor A3(2)) (protein)
chain: MRAASTGADPQDASTLGSFTGGQLRRLGSVAGLSRADVETYAQVLTDALGPVAQRPLSLAPPTRTFLSDDHTPVEFSLSFRPGAAPAMRVLVEPGCGATSLADNGRAGLEAVRTMARRWHFTTDALDELLDLFLPPAPQGPLALWCALELRPGGVPGVKVYLNPAVGGEERSAATVREALRRLGHHQAFDSLPQGSGYPFLALDLGNWTEPRAKVYLRHDNLTAGRAARLSRTDSGLVPTAVEGFFRTAAGPGSDAGGLDGRPAQSCHSFTDPGAERPSGFTLYIPVRDYVRHDGEALARASTVLHHHGMDASVLHRALAALTERRPEDGVGLIAYLALAGQRDQPPRVTAYLSSEAYTVRPPVVETVRQPLSVG
notes: N-terminal His8 tag (pHIS8), expressed in E. coli BL21(DE3), Ni-NTA purified, 40 kDa, monomer
Km (purified protein [3]): 50 ± 2 µM
kcat (purified protein [3]): 0.40 ± 0.1 s⁻¹
Km (purified protein [4]): 80 ± 6 µM
kcat (purified protein [4]): 0.40 ± 0.1 s⁻¹

Reference: paper PMC3617294, “Novel Tryptophan Metabolism by a Potential Gene Cluster That Is Widely Distributed among Actinomycetes” (The Journal of Biological Chemistry, 2013)
